Our source for the Kd values is paper PMC3023130.

As a reminder, the Kd is the free concentration of one partner at which half of the binding sites on the other are occupied at equilibrium, for simple one-to-one binding. Low values mean a tighter complex, high ones a looser complex.

This test addresses DQ1-MBP85-99 complex, monobiotinylated (SPR). Kind of test: SPR. A general note: SPR reads the build-up and loss of mass on a sensor chip optically.
On to Hy.1B11 TCR mutant CDR2β Q48A, for which the Kd is 108 µM.

Substance “Hy.1B11 TCR, soluble monomeric wild type” came in with a Kd of 14.3 µM.

Substance Hy.1B11 TCR mutant CDR3α E98A came in with a Kd of over 250 µM.

As to “Hy.1B11 TCR double mutant CDR1α N31A and CDR2α S52A”, the Kd was found to be 13.8 µM. This counts as double-digit micromolar.

For the substance Hy.1B11 TCR mutant CDR3α F95A, the Kd is over 250 µM.
